Like-named read-outs stand apart in the source and are kept apart here.

One data set has as its target HSF1-DBD (human, UniProt Q00613 1-123). Description: fluorescence polarization. (Fluorescence polarisation rises when a labelled molecule tumbles more slowly, as on binding a larger partner.)
In another data set the target is HSF1-ΔLZ1-3 (HSF1-CM) (human, UniProt Q00613 1-129+204-529, internal_change). Kind of data set: fluorescence polarization.
In data set [1] the target is T1, HSF1-WT monomer (SEC peak 3) (human, UniProt Q00613 1-529). Kind of data set: fluorescence polarization.
For data set [2], the target named is T2, HSF1-ΔLZ4-TAD (human, UniProt Q00613 1-383). Description: fluorescence polarization.
The next data set addresses HSF1-ΔTAD (human, UniProt Q00613 1-409). Kind of data set: fluorescence polarization.
Data set [3] concerns the target HSF1-WT trimer/oligomer (SEC peak 1) (human, UniProt Q00613 1-529). Kind of data set: fluorescence polarization.
In data set [4] the target is T1, HSF1-WT monomer (SEC peak 3). Description: fluorescence polarization. This is another data set of the same source.
In a further data set the target is HSF1-LZ4m (HSF1-CT) (human, UniProt Q00613 1-529, M391K;L395P;L398R). Description: fluorescence polarization.
Data set [5] concerns the target T2, HSF1-ΔLZ4-TAD. Kind of data set: fluorescence polarization. The source holds these as a separate data set.
The data set “native gel or EMSA” deals with the molecule itself. Kind of data set: native gel or EMSA. Background: A gel shift assay detects complexes by their altered migration in electrophoresis.

Sequence of HSF1-WT trimer/oligomer (SEC peak 1) (Q00613 whole entry): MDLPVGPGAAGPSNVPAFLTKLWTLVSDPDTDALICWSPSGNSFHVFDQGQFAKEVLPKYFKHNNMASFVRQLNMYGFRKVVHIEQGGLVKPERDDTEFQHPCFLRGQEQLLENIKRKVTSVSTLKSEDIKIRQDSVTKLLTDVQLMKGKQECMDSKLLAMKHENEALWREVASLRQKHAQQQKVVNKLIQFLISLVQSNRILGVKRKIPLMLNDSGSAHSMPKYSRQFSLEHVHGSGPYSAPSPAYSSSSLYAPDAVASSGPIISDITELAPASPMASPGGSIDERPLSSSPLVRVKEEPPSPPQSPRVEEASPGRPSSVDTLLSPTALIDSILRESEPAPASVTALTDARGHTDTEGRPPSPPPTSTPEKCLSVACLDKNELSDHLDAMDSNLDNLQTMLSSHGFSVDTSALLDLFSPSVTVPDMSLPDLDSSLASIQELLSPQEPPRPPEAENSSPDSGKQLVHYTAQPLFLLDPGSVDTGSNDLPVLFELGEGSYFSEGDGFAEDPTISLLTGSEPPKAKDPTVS

B1: HSE (canonical three-site) (dsDNA)
DNA 1: CCTGGAATATTCCCGAACTGGC
DNA 2: GCCAGTTCGGGAATATTCCAGG
As a reminder, the Kd is the concentration at which binding is half-saturated. The low end stands for higher affinity, the high end for lower affinity. Regarding B1, the Kd in the data set with HSF1-DBD was 0.0853 ± 0.00629 µM; with HSF1-ΔLZ1-3 (HSF1-CM) it was 0.00657 ± 0.00139 µM; in data set [1] it was 0.00798 ± 0.00143 µM; with HSF1-ΔLZ4-TAD [2], 0.0129 ± 0.000335 µM; with HSF1-ΔTAD, 0.0603 ± 0.00113 µM; in data set [3], 0.0171 ± 0.00628 µM. In addition, the dissociation constant (Kd) in data set [4] was 0.0567 ± 0.00462 µM; in the data set with HSF1-LZ4m (HSF1-CT), 0.0251 ± 0.00809 µM; with HSF1-ΔLZ4-TAD [5], 0.0226 ± 0.00137 µM.

B2: HSF1-LZ4mutant (LZ4m), constitutively trimeric/ oligomeric (CT) (natural protein, human, UniProt Q00613 1-529, looked up)
chain: MDLPVGPGAAGPSNVPAFLTKLWTLVSDPDTDALICWSPSGNSFHVFDQGQFAKEVLPKYFKHNNMASFVRQLNMYGFRKVVHIEQGGLVKPERDDTEFQHPCFLRGQEQLLENIKRKVTSVSTLKSEDIKIRQDSVTKLLTDVQLMKGKQECMDSKLLAMKHENEALWREVASLRQKHAQQQKVVNKLIQFLISLVQSNRILGVKRKIPLMLNDSGSAHSMPKYSRQFSLEHVHGSGPYSAPSPAYSSSSLYAPDAVASSGPIISDITELAPASPMASPGGSIDERPLSSSPLVRVKEEPPSPPQSPRVEEASPGRPSSVDTLLSPTALIDSILRESEPAPASVTALTDARGHTDTEGRPPSPPPTSTPEKCLSVACLDKNELSDHLDAKDSNPDNRQTMLSSHGFSVDTSALLDLFSPSVTVPDMSLPDLDSSLASIQELLSPQEPPRPPEAENSSPDSGKQLVHYTAQPLFLLDPGSVDTGSNDLPVLFELGEGSYFSEGDGFAEDPTISLLTGSEPPKAKDPTVS
As for B2, in the data set “native gel or EMSA”, the binding result was “binds”.

B3: mHSE (mutant HSE) (dsDNA)
DNA 1: CCTGGCGTAGTCCCCGCCTGGC
DNA 2: GCCAGGCGGGGACTACGCCAGG
Turning to B3, binding in data set [1] was put at a Kd of 0.0848 ± 0.0142 µM.

These data come from doi:10.1101/2025.04.28.650926 (bioRxiv, 2025).
